{
  "source": "patent US9187762B2",
  "about": "“Compositions and methods comprising sequences having hydroxyphenylpyruvate dioxygenase (HPPD) activity” (PIONEER HI-BRED INTERNATIONAL, INC., priority 2010, dated 2015)",
  "key": {"[1]": {"test_system": "T0 soybean plants", "assay": "Herbicide spray test of transgenic T0 HPPD soy plants using mesotrione, visual injury", "type": "in vivo", "settings": "mesotrione 210 g ai/ha, eight days after treatment", "description": "(1987) Nature 327:70-73, U.S. Pat. No. 4,945,050) using a DuPont Biolistic PDS1000/He instrument. A selectable marker gene used to facilitate soybean transformation was a chimeric gene composed of the 35S promoter from Cauliflower Mosaic Virus (Odell et al. (1985) Nature 313:810-812), the hygromycin phosphotransferase gene from plasmid pJR225 (from E coli; Gritz et al. (1983) Gene 25:179-188) and the 3' region of the nopaline synthase gene from the T-DNA of the Ti plasmid of Agrobacterium tumefaciens. Another selectable marker used to facilitate soybean transformation was a chimeric gene composed of the S-adenosylmethionine synthase (SAMS) promoter (U.S. Pat. […] Pat. […] The selection agent used during the transformation process was either hygromycin or chlorsulfuron depending on the marker gene present. […] Pat. […] (1995) Genetics 139 (2), 921-939; Genbank L05363). In specific constructs, the SCP1 promoter of U.S. Pat. No. 6,072,050 was employed. Bombardments were carried out with linear DNA fragments purified away from any bacterial vector DNA. […] Bombarded soybean embryogenic suspension tissue was cultured for one week in the absence of selection agent, then placed in liquid selection medium for 6 weeks. […] Putative transgenic suspension culture tissue was maintained in selection medium for 3 weeks to obtain enough tissue for plant regeneration. Suspension tissue was matured for 4 weeks using standard procedures; matured somatic embryos were desiccated for 4-7 days and then placed on germination induction medium for 2-4 weeks. Germinated plantlets were transferred to soil in cell pack trays for 3 weeks for acclimatization. Plantlets were potted to 10-inch pots in the greenhouse for evaluation of herbicide resistance. […] Some T0 plants were not sprayed with herbicide and were all advanced to the next generation for testing."}, "[2]": {"test_system": "maize HPPD", "assay": "HPPD activity, coupled assay with HGD at 320 nm; substrate saturation kinetics (KM, kcat)", "type": "biochemical", "description": "(§1) HPPD catalyzes the conversion of 4-hydroxyphenylpyruvate (HPP) to homogentisate. See, FIG. 1. […] However, the product of the ensuing reaction in tyrosine metabolism, maleylacetoacetate, absorbs strongly at 320 nm. Furthermore, the enzyme catalyzing that reaction is also a dioxygenase having similar mechanism and buffer requirements as HPPD, making homogentisate dioxygenase (HGD) an ideal partner in a coupled assay, as shown.\n(§2) The HDG gene from Pseudomonas aeruginosa (Amaya (2004) Arch Biochem Biophys 421, 135-142) was cloned into pVER7062 and electroporated into E. coli strain BL21(DE3). The enzyme was produced by methods similar to those described for HPPD. The purified enzyme has a KM for homogentisate of 23 uM and a kcat of 100/sec, properties highly suited for instantly converting the homogentisate produced by HPPD to maleylacetoacetate.\n(§3) HPPD activity was measured by placing an aliquot (e.g., 6 ul) of the substrate HPP at 50-fold the desired final concentration into the wells of a low UV-absorbing assay plate. Reactions were started by adding a mixture (e.g., 294 ul) containing 25 mM Hepes, pH 7, 2 mM ascorbate, 10 uM FeSO4, 1 to 100 uM HPP, 50 nM HGD and 5 to 240 nM HPPD. Absorbance at 320 nm was monitored continuously in a plate-reading spectrophotometer (Spectramax, Molecular Devices).\n(§4) The catalytic performance of wild-type HPPD and variants generated by shuffling was assessed by determining the substrate saturation parameters. The Michaelis-Menten kinetics protocol of the Spectramax software was customized for HPP concentrations ranging from 3.33 uM to 100 uM, or up to 1 mM if required. Reaction rates were measured as described above for each concentration of HPP. The software returns values of KM and Vmax using the Lineweaver-Burke transformation of the Michaelis-Menten equation."}, "[3]": {"test_system": "maize HPPD", "assay": "ON rate ratio, OFF rate ratio and insensitivity parameter with herbicidal HPPD inhibitors", "type": "biochemical", "settings": "for ON rate ratio: mesotrione 4 uM, 100 uM HPP, 70 to 90 second interval", "description": "To devise a parameter for detecting changes in inhibitor binding affinity, KD, one can utilize the relationship between KD and the rates of binding and release of inhibitor to and from the enzyme. [formula] Higher KD (reduced affinity or increased insensitivity) can be attained with a numerically smaller ON rate, a larger OFF rate or both. […] The ratio of the reaction rate with inhibitor to that without inhibitor during the 70 to 90 second interval of the reaction was termed the “ON rate ratio”. […] Incubations with the same concentrations of enzyme but no mesotrione were done in parallel. After 1 hr at room temperature, 5 to 10 ul of the enzyme-inhibitor complex was dispensed into the wells of the assay plate. Reactions were started with the addition of 290 to 295 ul of 25 mM Hepes, pH 7, 2 mM ascorbate, 10 uM FeSO4, 100 uM HPP and 50 nM HGD. The reactions were monitored at 320 nm for 12 min. Reaction velocity accelerates as inhibitor is released from the enzyme until a steady state is reached, during which the reaction velocity is constant. The ratio of the steady state rate in mixtures containing mesotrione (or other herbicidal inhibitor) to the initial velocity of mixtures lacking inhibitor is termed the “OFF rate ratio”. Another parameter to record is the time span required for the reactions with inhibitor to reach the steady state. […] It is not certain that the steady state attained in the OFF rate reactions actually represents an equilibrium where OFF rates are now equal to ON rates. Because substrate and inhibitors bind in the same site, the high concentration of substrate present may competitively trap the inhibitor and prevent it from binding again. To be sure that improvement in ON rates is being taken into account, the ON and OFF rate ratios were multiplied together and the product is termed the “insensitivity parameter”. […] The variants in Table 9 were grouped according to the parameter in which they are improved compared to wild type. The sequence positions are numbered according to the wild-type maize amino acid sequence of SEQ ID 1. Some substitutions are effective in multiple contexts, as discussed in the next section."}, "[4]": {"test_system": "soybean HPPD", "assay": "HPPD activity, coupled assay with HGD; substrate saturation kinetics (KM, kcat)", "type": "biochemical", "settings": "substrate HPP; E. coli-expressed enzyme", "description": "as §1, §2, §3, §4\nThe amino acid substitutions identified during the shuffling and mutagenesis of the maize HPPD gene can be made at analogous positions in other HPPD proteins to improve their insensitivity toward HPPD-inhibiting herbicides. The sequences of native and improved maize HPPD were aligned with those of sorghum (Genbank accession number XP002453359) and soybean (Genbank accession number ABQ96868), and the motif substitutions were designed accordingly, as shown in FIG. 14. The genes designed for improvement were synthesized commercially, inserted into vector pVER7062 and expressed, purified and evaluated as in Example 1."}, "[5]": {"settings": "Elite soybean control, DNA none"}, "[6]": {"settings": "substrate HPP, E. coli-expressed enzyme"}},
  "data": [
    {"molecule": "CS(=O)(=O)c1ccc(C(=O)C2C(=O)CCCC2=O)c([N+](=O)[O-])c1", "note": "[mesotrione]", "values": [
      {"measurement": "Mean Soybean Response (% Injury)", "setting": "[1]; [5]", "value": 88, "unit": "%"},
      {"measurement": "Soybean % Injury Response Range", "setting": "[1]; [5]", "value": "80-95%"},
      {"measurement": "Mean Soybean Response (% Injury)", "setting": "[1]; Jack soybean control, DNA none", "value": 87, "unit": "%"},
      {"measurement": "Soybean % Injury Response Range", "setting": "[1]; Jack soybean control, DNA none", "value": "75-95%"}
    ]},
    {"molecule": "Maize wt: synthetic maize wild-type HPPD protein, SEQ ID NO: 1, expressed in E. coli (protein, Zea mays) MGPTPTAAAAGAAVAAASAAEQAAFRLVGHRNFVRFNPRSDRFHTLAFHHVELWCADAASAAGRFSFGLGAPLAARSDLSTGNSAHASLLLRSGSLSFLFTAPYAHGADAATAALPSFSAAAARRFAADHGLAVRAVALRVADAEDAFRASVAAGARPAFGPVDLGRGFRLAEVELYGDVVLRYVSYPDGAAGEPFLPGFEGVASPGAADYGLSRFDHIVGNVPELAPAAAYFAGFTGFHEFAEFTTEDVGTAESGLNSMVLANNSENVLLPLNEPVHGTKRRSQIQTFLDHHGGPGVQHMALASDDVLRTLREMQARSAMGGFEFMAPPTSDYYDGVRRRAGDVLTEAQIKECQELGVLVDRDDQGVLLQIFTKPVGDRPTLFLEIIQRIGCMEKDEKGQEYQKGGCGGFGKGNFSQLFKSIEDYEKSLEAKQAAAAAAAQGS", "values": [
      {"measurement": "kcat", "setting": "[2]; N-terminal truncated variants of maize wild-type HPPD, single measurement", "value": 2.77, "unit": "s⁻¹"},
      {"measurement": "Km", "setting": "[2]; [6]", "value": 5.2, "unit": "µM"},
      {"measurement": "kcat", "setting": "[2]; [6]", "value": 3.45, "unit": "s⁻¹"},
      {"measurement": "kcat", "setting": "[2]; substrate HPP, E. coli-expressed enzyme, listed as wild type", "value": "about 220 min^−1"},
      {"measurement": "Insensitivity parameter (ON rate ratio × OFF rate ratio) relative to that of maize wild-type HPPD", "setting": "[3]; Isoxaflutole (diketonitrile)", "value": 1.0},
      {"measurement": "Insensitivity parameter (ON rate ratio × OFF rate ratio) relative to that of maize wild-type HPPD", "setting": "[3]; Sulcotrione", "value": 1.0},
      {"measurement": "Insensitivity parameter (ON rate ratio × OFF rate ratio) relative to that of maize wild-type HPPD", "setting": "[3]; Topramezone", "value": 1.0},
      {"measurement": "Triple product (ON rate ratio × OFF rate ratio × kcat), relative to that of maize wild-type HPPD", "setting": "[3]; inhibitor Isoxaflutole (diketonitrile)", "value": 1.0},
      {"measurement": "Triple product (ON rate ratio × OFF rate ratio × kcat), relative to that of maize wild-type HPPD", "setting": "[3]; inhibitor Mesotrione", "value": 1.0},
      {"measurement": "Triple product (ON rate ratio × OFF rate ratio × kcat), relative to that of maize wild-type HPPD", "setting": "[3]; inhibitor Sulcotrione", "value": 1.0},
      {"measurement": "Triple product (ON rate ratio × OFF rate ratio × kcat), relative to that of maize wild-type HPPD", "setting": "[3]; inhibitor Tembotrione", "value": 1.0},
      {"measurement": "Triple product (ON rate ratio × OFF rate ratio × kcat), relative to that of maize wild-type HPPD", "setting": "[3]; inhibitor Topramezone", "value": 1.0},
      {"measurement": "Insensitivity parameter (ON rate ratio × OFF rate ratio) relative to that of maize wild-type HPPD", "setting": "[3]; mesotrione", "value": 1.0},
      {"measurement": "ON × OFF × kcat", "setting": "[3]; mesotrione", "value": 9.88},
      {"measurement": "Vmax MT (maximum reaction rate attained with mesotrione in the determination of OFF rate ratio)", "setting": "[3]; mesotrione", "value": 52, "unit": "min⁻¹"},
      {"measurement": "insensitivity parameter (ON rate ratio × OFF rate ratio)", "setting": "[3]; mesotrione", "value": 0.049},
      {"measurement": "ON rate ratio", "setting": "[3]", "value": 0.2},
      {"measurement": "ON rate ratio", "setting": "[3]; listed as WT", "value": 0.19},
      {"measurement": "OFF rate ratio", "setting": "[3]; mesotrione, pre-formed enzyme-inhibitor complex", "value": 0.26},
      {"measurement": "time span to attain steady state in OFF rate reaction", "setting": "[3]; release of mesotrione from pre-formed complex, enzyme 240 nM", "value": 280, "unit": "s"},
      {"measurement": "Insensitivity parameter (ON rate ratio × OFF rate ratio) relative to that of maize wild-type HPPD", "setting": "[3]; tembotrione", "value": 1.0},
      {"measurement": "tolerance to mesotrione in T0 soybean plants", "setting": "[1]", "value": "moderate tolerance"}
    ]},
    {"molecule": "Soy wt: wild-type soybean HPPD protein, SEQ ID NO: 2, expressed in E. coli (protein, Glycine max) MAIPMCNEIQAQAQAQAQAQPGFKLVGFKNFVRTNPKSDRFQVNRFHHIEFWCTDATNASRRFSWGLGMPIVAKSDLSTGNQIHASYLLRSGDLSFLFSAPYSPSLSAGSSAASSASIPSFDAATCLAFAAKHGFGVRAIALEVADAEAAFSASVAKGAEPASPPVLVDDRTGFAEVRLYGDVVLRYVSYKDAAPQAPHADPSRWFLPGFEAAASSSSFPELDYGIRRLDHAVGNVPELAPAVRYLKGFSGFHEFAEFTAEDVGTSESGLNSVVLANNSETVLLPLNEPVYGTKRKSQIETYLEHNEGAGVQHLALVTHDIFTTLREMRKRSFLGGFEFMPSPPPTYYANLHNRAADVLTVDQIKQCEELGILVDRDDQGTLLQIFTKPVGDRPTIFIEIIQRIGCMVEDEEGKVYQKGACGGFGKGNFSELFKSIEEYEKTLEAKRTA", "values": [
      {"measurement": "Km", "setting": "[4]", "value": 3, "unit": "µM"},
      {"measurement": "kcat", "setting": "[4]", "value": 1.67, "unit": "s⁻¹"}
    ]},
    {"molecule": "D0223961: shuffled maize HPPD variant used for chloroplast transformation (protein, HPPD variant, shuffled maize HPPD variant used for chloroplast transformation) MGPTPTATAAGAAVAAASAAEQAAFRLVGHRNFVRFNPRSDRFHTLAFHHVELWCADAASAAGRFSFALGAPLAARSDLSTGNSAHASLLLRSGSLSFLFTAPYAHGADAATAALPSFSAAAARRFAADHGLAVRAVALRVADAEDAFRASVAAGARPAFGPVDLGRGFRLAEVELYGDVVLRYVSYPDGAAGEPFLPGFEGVASPGAADYGLSRFDHIVGNVPELAPAAAYFAGFTGFHEFAEFTTEDVGTAESGLNSMALANNSENVLLPLNEPVHGTKRRSQIQTFLDHHGGPGVQHIALASDDVLRTLREMQARSAMGGFEFLPPPPSDYYDGVRRCAGDVLTEAQINECQELGVMVDRDDQGVLLQIFTKPVGDRPTFFLEIIQRIGCMEKDEKGQEYQKGGCGGFGKKNFGQLFKSIEDYEKSLEAKQAAAAATAQGS", "values": [
      {"measurement": "kcat", "setting": "[2]; variants truncated to ala20 vs full length", "value": "1.77 ± 0.207", "unit": "s⁻¹"},
      {"measurement": "Soybean % Injury Response Range", "setting": "[1]; T0 soybean plants expressing the HPPD gene variant (per DNA construct)", "value": "0-80%"},
      {"measurement": "Mean Soybean Response (% Injury)", "setting": "[1]; T0 soybean plants expressing the HPPD gene variant (per DNA construct), 0=no effect, 100=dead plant", "value": 26, "unit": "%"}
    ]}
  ]
}
